Common to all, as to experiment: SEC-MALS + native gel or EMSA; static light scattering (DynaPro, Wyatt) after Superdex 200, 100 uL at >1 mg/mL in 10 mM PBS pH 7.4, flow 0.45 mL/min, LS, UV and dRI detection; 10% native-PAGE, 1 umol protein loaded; oligomeric state in solution
A general note: SEC sorts molecules by how far they enter the pores of the column.

The target in assay [1] is rFIP-nha N39A glycosylation mutant, expressed in P. pastoris (Nectria haematococca).
The target of assay [2] is rFIP-nha N5+39A double glycosylation mutant, expressed in P. pastoris (Nectria haematococca).
Assay [3] deals with rFIP-nha wild-type (fungal immunomodulatory protein from Nectria haematococca), expressed in P. pastoris (Nectria haematococca).
The target in assay [4] is rFIP-nha N5A glycosylation mutant, expressed in P. pastoris (Nectria haematococca).

Usually stoichiometry N stands for a count of units in the complex or per binding partner. Turning to “rFIP-nha N39A glycosylation mutant, expressed in P. pastoris (natural protein)”, the stoichiometry N in assay [1] was found to be 4.

As to “rFIP-nha N5+39A double glycosylation mutant, expressed in P. pastoris (natural protein)”, the stoichiometry N in assay [2] stood at 4.

Take “rFIP-nha wild-type (fungal immunomodulatory protein from Nectria haematococca), expressed in P. pastoris (natural protein)”: in assay [3], the stoichiometry N was 4.

Take “rFIP-nha N5A glycosylation mutant, expressed in P. pastoris (natural protein)”: the stoichiometry N in assay [4] amounted to 4.

These data come from publication PMC10490071.
